The test addresses CD20 (UniProt P11836). The test is described as follows: cell-based or functional assay.
Sequence of UniProt P11836 (P11836 whole entry): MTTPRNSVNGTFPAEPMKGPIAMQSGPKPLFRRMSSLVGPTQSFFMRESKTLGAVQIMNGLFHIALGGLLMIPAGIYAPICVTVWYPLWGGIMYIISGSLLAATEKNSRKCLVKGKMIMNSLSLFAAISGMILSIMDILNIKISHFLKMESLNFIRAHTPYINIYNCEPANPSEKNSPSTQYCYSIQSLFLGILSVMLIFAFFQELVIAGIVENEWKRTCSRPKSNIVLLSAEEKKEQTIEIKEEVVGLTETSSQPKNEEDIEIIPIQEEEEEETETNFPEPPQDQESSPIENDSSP

As to Rituximab (antibody), the ADCC on Raji cells with NK92MI-CD16a effector cells (LDH release), EC50(ng/mL) came to 0.607 ng/mL and the CDC on Raji cells with human serum complement (LDH release), EC50(ng/mL) stood at 210 ng/mL.

These data come from patent CN112980851A.
